Source: doi:10.1101/2021.03.24.436638
Numbering of substitutions follows the chain as printed. In names and notes the source's numbering stands. Each block holds one binder with its values, some of them ahead of it.

Biological target: calnexin (simian (endogenous in COS7))
Assay: co-IP

amount coimmunoprecipitated with CNX, percent of wild-type GlyT2: 289%
B1: GlyT2 A277T mutant (rat numbering; rat version of human A275T) (natural protein)
chain: MDCSAPKEMNKPPTNILEATVPGHRDSPRAPRTSPEQDLPAAAPAAAVQPPRVPRSASTGAQTFQSADARACEAQRPGVGFCKLSSPQAQATSAALRDLSEGHSAQANPPSGAAGAGNALHCKIPALRGPEEDENVSVGKGTLEHNNTPAVGWVNMSQSTVVLGTDGIASVLPGSVATTTIPEDEQGDENKARGNWSSKLDFILSMVGYAVGLGNVWRFPYLAFQNGGGAFLIPYLMMLALAGLPIFFLEVSLGQFASQGPVSVWKAIPALQGCGITMLIISVLIAIYYNVIICYTLFYLFASFVSVLPWGSCNNPWNTPECKDKTKLLLDSCVIGDHPKIQIKNSTFCMTAYPNLTMVNFTSQANKTFVSGSEEYFKYFVLKISAGIEYPGEIRWPLAFCLFLAWVIVYASLAKGIKTSGKVVYFTATFPYVVLVILLIRGVTLPGAGAGIWYFITPKWEKLTDATVWKDAATQIFFSLSAAWGGLITLSSYNKFHNNCYRDTLIVTCTNSATSIFAGFVIFSVIGFMANERKVNIENVADQGPGIAFVVYPEALTRLPLSPFWAIIFFLMLLTLGLDTMFATIETIVTSISDEFPKYLRTHKPVFTLGCCICFFIMGFPMITQGGIYMFQLVDTYAASYALVIIAIFELVGISYVYGLQRFCEDIEMMIGFQPNIFWKVCWAFVTPTILTFILCFSFYQWEPMTYGSYRYPNWSMVLGWLMLACSVIWIPIMFVIKMYLAPGRFIERLKLVCSPQPDWGPFLAQHRGERYKNMIDPLGTSSLGLKLPVKDLELGTQC

amount coimmunoprecipitated with CNX, percent of wild-type GlyT2: 188%
B2: GlyT2 Y707C mutant (rat numbering; rat version of human Y705C) (natural protein)
chain: B1 chain with T277A, Y707C
